According to the Human Domainome abundance scans (Beltran et al. 2025):
± gives the uncertainty stated by the source.

B1: POU domain, class 5, transcription factor 1, residues 134 to 212; numbered along this chain, Q01860 (parent)
chain: EESQDIKALQKELEQFAKLLKQKRITLGYTQADVGLTLGVLFGKVFSQTTICRFEALQLSFKNMCKLRPLLQKWVEEAD

Variants of: B1
Assay: abundance fitness (aPCA) (normalised: wild type 0, dead -1); higher = more abundant; growth selection in yeast, the domain comes from the species named
Conditions: Homo sapiens

Variant | abundance fitness
Q22R | -0.092 ± 0.2
Q22S | 0.268 ± 0.14
K23A | -0.608 ± 0.33
K23L | -0.608 ± 0.37
K23Q | -0.256 ± 0.46
K23R | 0.059 ± 0.12
K23T | -0.384 ± 0.27
R24A | -0.859 ± 0.47
R24Q | -0.391 ± 0.44
R24S | -0.361 ± 0.18
R24V | -0.068 ± 0.22
I25E | -0.207 ± 0.38
I25K | -0.131 ± 0.47
I25L | 0.249 ± 0.16
I25R | -0.078 ± 0.24
I25V | 0.264 ± 0.16
T26A | 0.202 ± 0.15
T26C | -0.059 ± 0.46
T26E | 0.04 ± 0.27
T26G | 0.071 ± 0.12
T26I | -0.313 ± 0.48
T26K | -0.414 ± 0.36
T26L | 0.004 ± 0.25
T26M | -0.256 ± 0.42

Variant | abundance fitness
T26N | 0.268 ± 0.45
T26Q | -0.123 ± 0.39
T26R | 0.129 ± 0.14
T26S | 0.329 ± 0.18
T26V | -0.212 ± 0.19
L27A | -0.648 ± 0.21
L27C | 0.039 ± 0.19
L27D | -0.185 ± 0.25
L27E | -0.842 ± 0.28
L27G | -0.387 ± 0.1
L27H | -0.387 ± 0.41
L27I | -0.051 ± 0.49
L27K | -0.31 ± 0.19
L27M | -0.188 ± 0.19
L27N | -0.429 ± 0.36
L27P | -0.274 ± 0.2
L27Q | -0.602 ± 0.24
L27R | -0.345 ± 0.1
L27S | -0.724 ± 0.25
L27V | -0.588 ± 0.14
L27W | -0.185 ± 0.11
L27Y | -0.358 ± 0.4
G28A | -1.06 ± 0.3
G28H | 0.386 ± 0.21

Variant | abundance fitness
G28K | -0.569 ± 0.34
G28L | -0.76 ± 0.22
G28M | -0.465 ± 0.24
G28N | -0.34 ± 0.42
G28Q | -0.389 ± 0.2
G28R | -0.555 ± 0.13
G28S | -0.839 ± 0.32
G28T | -0.738 ± 0.37
G28V | -0.787 ± 0.19
G28W | -0.813 ± 0.33
Y29A | -0.41 ± 0.13
Y29C | -0.64 ± 0.32
Y29D | -0.422 ± 0.31
Y29F | -0.761 ± 0.47
Y29G | -0.56 ± 0.14
Y29H | 0.148 ± 0.21
Y29I | -0.771 ± 0.47
Y29L | -0.055 ± 0.094
Y29M | 0.18 ± 0.12
Y29P | -0.407 ± 0.24
Y29Q | 0.068 ± 0.19
Y29R | -0.383 ± 0.096
Y29S | -0.717 ± 0.21
Y29V | -0.216 ± 0.089

Variant | abundance fitness
Y29W | -0.472 ± 0.18
T30A | -0.667 ± 0.18
T30E | -1.06 ± 0.48
T30H | -0.437 ± 0.44
T30L | -0.853 ± 0.27
T30M | -0.526 ± 0.25
T30Q | -0.664 ± 0.3
T30R | -0.249 ± 0.078
T30S | 0.082 ± 0.085
T30V | -0.392 ± 0.12
Q31A | -0.103 ± 0.11
Q31C | 0.266 ± 0.18
Q31D | -0.126 ± 0.33
Q31E | 0.276 ± 0.1
Q31F | -0.009 ± 0.29
Q31G | -0.402 ± 0.16
Q31H | -0.108 ± 0.37
Q31K | -0.557 ± 0.34
Q31L | -0.093 ± 0.2
Q31P | 0.133 ± 0.14
Q31R | -0.469 ± 0.14
Q31V | -0.679 ± 0.21
Q31W | 0.078 ± 0.12
Q31Y | 0.323 ± 0.27

Variant | abundance fitness
A32C | -0.229 ± 0.32
A32E | -0.024 ± 0.15
A32G | -0.235 ± 0.1
A32H | -0.487 ± 0.41
A32K | 0.232 ± 0.2
A32L | -0.749 ± 0.27
A32N | -0.193 ± 0.33
A32R | 0.066 ± 0.1
A32T | -0.06 ± 0.21
A32V | -0.785 ± 0.31
A32W | -0.682 ± 0.29
D33A | -0.594 ± 0.19
D33E | -0.081 ± 0.13
D33F | -0.407 ± 0.31
D33G | -0.283 ± 0.12
D33K | 0.128 ± 0.2
D33L | -0.563 ± 0.23
D33M | -0.497 ± 0.34
D33P | -0.227 ± 0.2
D33Q | 0.236 ± 0.13
D33S | -0.572 ± 0.19
D33T | -1.08 ± 0.5
D33V | -1.19 ± 0.42
D33W | -0.563 ± 0.23

Variant | abundance fitness
V34A | -0.742 ± 0.29
V34G | -0.518 ± 0.17
V34I | -0.031 ± 0.35
V34L | -0.258 ± 0.21
V34P | 0.101 ± 0.2
V34Q | -0.231 ± 0.32
V34R | -0.637 ± 0.2
V34T | -0.797 ± 0.47
G35A | 0.266 ± 0.092
G35C | -0.64 ± 0.32
G35L | -0.769 ± 0.46
G35P | -0.452 ± 0.29
G35Q | -0.039 ± 0.25
G35R | -0.32 ± 0.17
G35S | 0.134 ± 0.14
G35T | -0.697 ± 0.42
G35V | -0.743 ± 0.3
L36A | 0.273 ± 0.065
L36C | 0.111 ± 0.16
L36D | 0.112 ± 0.1
L36E | 0.155 ± 0.094
L36F | 0.013 ± 0.26
L36G | -0.306 ± 0.085
L36H | 0.362 ± 0.15

Variant | abundance fitness
L36I | 0.311 ± 0.2
L36K | 0.087 ± 0.15
L36M | 0.168 ± 0.15
L36N | 0.144 ± 0.21
L36P | -0.6 ± 0.26
L36Q | 0.283 ± 0.14
L36R | 0.235 ± 0.059
L36S | 0.105 ± 0.088
L36T | 0.293 ± 0.096
L36V | 0.002 ± 0.065
L36W | 0.249 ± 0.077
L36Y | -0.037 ± 0.32
T37A | 0.345 ± 0.074
T37C | -0.733 ± 0.34
T37D | 0.412 ± 0.14
T37E | 0.681 ± 0.076
T37F | 0.319 ± 0.23
T37G | 0.296 ± 0.06
T37H | 0.162 ± 0.2
T37I | -0.093 ± 0.18
T37K | 0.082 ± 0.16
T37L | -0.283 ± 0.12
T37M | 0.116 ± 0.12
